From publication PMC4107794 (The Journal of Cell Biology, 2014) come the findings set out here.

One assay concerns the target FLAG-Rad18 (UniProt Q9NS91 1-495). In words: pull-down.
A further assay addresses GST-Rad18 (UniProt Q9NS91 1-495). In words: pull-down.

FLAG-Rad18, sequence (Q9NS91 whole entry): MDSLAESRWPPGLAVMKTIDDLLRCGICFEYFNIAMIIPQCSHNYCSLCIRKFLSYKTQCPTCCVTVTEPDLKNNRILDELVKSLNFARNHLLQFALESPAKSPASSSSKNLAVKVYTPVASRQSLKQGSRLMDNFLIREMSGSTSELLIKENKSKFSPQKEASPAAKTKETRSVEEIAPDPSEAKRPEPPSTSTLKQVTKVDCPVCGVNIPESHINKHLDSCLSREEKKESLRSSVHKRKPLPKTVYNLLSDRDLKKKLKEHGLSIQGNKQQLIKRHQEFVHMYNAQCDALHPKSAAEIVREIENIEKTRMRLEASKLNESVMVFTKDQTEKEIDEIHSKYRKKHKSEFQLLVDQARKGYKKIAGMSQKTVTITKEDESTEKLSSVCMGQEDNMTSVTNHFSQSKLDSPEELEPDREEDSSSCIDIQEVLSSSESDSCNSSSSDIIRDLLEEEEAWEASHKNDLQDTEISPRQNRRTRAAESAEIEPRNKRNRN
GST-Rad18, sequence (Q9NS91 whole entry): as above

B1: FLAG-SHPRH (natural protein)
chain: MSSRRKRAPPVRVDEEKRQQLHWNMHEDRRNEPIIISDDDEQPCPGSDTSSAHYIILSDSLKEEVAHRDKKRCSKVVSFSKPIEKEETVGIFSPLSVKLNIVISPYHFDNSWKAFLGELTLQLLPAQSLIENFSERSITLMSSESSNQFLIYVHSKGEDVEKQKKEPMSICDKGILVESSFSGEMLEDLGWLQKKRRIKLYQKPEGNHIIKVGIYLLEAGLAKLDFLSDANSRMKKFNQLMKKVMEKLHNSIIPDVLEEDEDDPESEPEGQDIDELYHFVKQTHQQETQSIQVDVQHPALIPVLRPYQREAVNWMLQQECFRSSPATESALHFLWREIVTSEGLKLYYNPYTGCIIREYPNSGPQLLGGILADEMGLGKTVEVLALILTHTRQDVKQDALTLPEGKVVNYFIPSHYFGGKLKKTEIQNIEFEPKEKVQCPPTRVMILTAVKEMNGKKGVSILSIYKYVSSIYRYDVQRNRSLLKRMLKCLIFEGLVKQIKGHGFSGTFTLGKNYKEEDICDKTKKQAVGSPRKIQKETRKSGNKDTDSEYLPSDTSDDDDDPYYYYYKSRRNRSKLRKKLVPSTKKGKSQPFINPDSQGHCPATSDSGITDVAMSKSTCISEFNQEHETEDCAESLNHADSDVPPSNTMSPFNTSDYRFECICGELDQIDRKPRVQCLKCHLWQHAKCVNYDEKNLKIKPFYCPHCLVAMEPVSTRATLIISPSSICHQWVDEINRHVRSSSLRVLVYQGVKKDGFLQPHFLAEQDIVIITYDVLRSELNYVDIPHSNSEDGRRLRNQKRYMAIPSPLVAVEWWRICLDEAQMVECPTVKAAEMAQRLSGINRWCISGTPVQRGLEDLFGLVVFLGIEPYCVKHWWVRLLYRPYCKKNPQHLYSFIAKILWRSAKKDVIDQIQIPPQTEEIHWLHFSPVERHFYHRQHEVCCQDVVVKLRKISDWALKLSSLDRRTVTSILYPLLRLRQACCHPQAVRGEFLPLQKSTMTMEELLTSLQKKCGTECEEAHRQLVCALNGLAGIHIIKGEYALAAELYREVLRSSEEHKGKLKTDSLQRLHATHNLMELLIARHPGIPPTLRDGRLEEEAKQLREHYMSKCNTEVAEAQQALYPVQQTIHELQRKIHSNSPWWLNVIHRAIEFTIDEELVQRVRNEITSNYKQQTGKLSMSEKFRDCRGLQFLLTTQMEELNKCQKLVREAVKNLEGPPSRNVIESATVCHLRPARLPLNCCVFCKADELFTEYESKLFSNTVKGQTAIFEEMIEDEEGLVDDRAPTTTRGLWAISETERSMKAILSFAKSHRFDVEFVDEGSTSMDLFEAWKKEYKLLHEYWMALRNRVSAVDELAMATERLRVRDPREPKPNPPVLHIIEPHEVEQNRIKLLNDKAVATSQLQKKLGQLLYLTNLEKSQDKTSGGVNPEPCPICARQLGKQWAVLTCGHCFCNECISIIIEQYSVGSHRSSIKCAICRQTTSHKEISYVFTSEKANQEEDIPVKGSHSTKVEAVVRTLMKIQLRDPGAKALVFSTWQDVLDIISKALTDNNMEFAQISRVKTFQENLSAFKRDPQINILLLPLHTGSNGLTIIEATHVLLVEPILNPAHELQAIGRVHRIGQTKPTIVHRFLIKATIEERMQAMLKTAERSHTNSSAKHSEASVLTVADLADLFTKETEELE
As for B1, the binding result in the assay with FLAG-Rad18 and in the assay with GST-Rad18 was “binds” throughout.
